B1: minF1; the commonest letter at each place (parent)
chain: GAGACCGCAACTGAAAAGTTGTTATCAGAAATGGATGGGTTGAATTTCTGCACGTAGAAGCAAAAGGC

Variants of: B1
Test: fraction ligated after 30 min (ligated reads / total reads); higher = more ligase activity
Conditions: with F1*subA RNA substrate (template-directed ligation), 42 °C
Protocol: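 Chip-synthesised pool of minF1 ligase ribozyme variants (single and double substitutions, single to quadruple deletions, bulge and P2 designed variants) was transcribed with T7 and reacted as a pool with excess substrate F1*subA for 30 min at 42 C in 50 mM EPPS pH 8.5, 25 mM MgCl2. Ligated and unligated RNAs were separated by PAGE, barcoded by RT and deep sequenced; fraction ligated = ligated reads / total reads, relative activity = FL / FL of wild-type minF1 (0.76); sequencing FL correlated with PAGE (R2 = 0.98). Sequences are the DNA template of the ribozyme.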

Variant | fraction ligated
T25A A35T | 0.458
T25A A35G | 0.0048
T25A A35C | 0.0123
T25C A44C | 0.00738
T25C A44T | 0.0143
T25C A44G | 0.0106
A24C G42T | 0.00251
A24C G42A | 0.00275
A24C G42C | 0.000786
A24T C26T | 0.0111
A24T C26G | 0.0102
A24T C26A | 0.00282
T25A A31C | 0.00883
T25A A31T | 0.00708
T25A A31G | 0.0139
T25C G34T | 0.00336
T25C G34A | 0.00778
T25C G34C | 0.00188
T25A A27T | 0.0564
T25A A27G | 0.0139
T25A A27C | 0.0652
A24T A27C | 0.105
A24T A27G | 0.0839
A24T A27T | 0.171

Variant | fraction ligated
T25G G28A | 0.0158
T25G G28T | 0.0241
T25G G28C | 0.0182
A24C A31T | 0.0211
A24C A31C | 0.0126
A24C A31G | 0.0441
A24G C26G | 0.00544
A24G C26T | 0.00563
A24G C26A | 0.0171
A24T | 0.011
A24G | 0.122
A24C | 0.025
T23G T32C | 0.00942
T23G T32A | 0.084
T23G T32G | 0.0266
A24C G28T | 0.0617
A24C G28C | 0.0343
A24C G28A | 0.0266
A24C G34T | 0.00294
A24C G34C | 0.00204
A24C G34A | 0.0317
A24C G33A | 0.0216
A24C G33T | 0.0129
A24C G33C | 0.00418

Variant | fraction ligated
A24C C26G | 0.032
A24C C26T | 0.0975
A24C C26A | 0.0482
A24G A31C | 0.0105
A24G A31T | 0.0427
A24G A31G | 0.0578
T25G A43C | 0.00324
T25G A43G | 0.00372
T25G A43T | 0.00824
A24G G34T | 0.000849
A24G G34C | 0.00145
A24G G34A | 0.00498
A24T A31T | 0.00682
A24T A31G | 0.00616
A24T A31C | 0.00611
A24G A35G | 0.0312
A24G A35C | 0.0163
A24G A35T | 0.00297
A24G G28A | 0.043
A24G G28T | 0.254
A24G G28C | 0.065
T25C C26T | 0.079
T25C C26A | 0.00962
T25C C26G | 0.00975

Variant | fraction ligated
A24C T25G | 0.0197
A24C T25C | 0.0235
A24C T25A | 0.0142
C26A G34T | 0.00758
C26A G34C | 0.00194
C26A G34A | 0.0394
A24T A43G | 0.00117
A24T A43T | 0.00827
A24T A43C | 0.00315
C26A G28C | 0.0637
C26A G28T | 0.117
C26A G28A | 0.0578
T25G A30T | 0.0162
T25G A30G | 0.0222
T25G A30C | 0.0106
A24G T36G | 0.00746
A24G T36A | 0.0103
A24G T36C | 0.0933
C26A T32G | 0.00324
C26A T32A | 0.00455
C26A T32C | 0.0036
A24C A27G | 0.0468
A24C A27C | 0.056
A24C A27T | 0.105

Variant | fraction ligated
C26A A30G | 0.216
C26A A30T | 0.0695
C26A A30C | 0.0463
C26A G33C | 0.0427
C26A G33A | 0.19
C26A G33T | 0.0279
A24G T25G | 0.00212
A24G T25C | 0.01
A24G T25A | 0.00617
T25A A44C | 0.00273
T25A A44G | 0.00172
T25A A44T | 0.0103
A24C G37C | 0.00569
A24C G37T | 0.00693
A24C G37A | 0.00687
A24T A30G | 0.0104
A24T A30T | 0.00805
A24T A30C | 0.00942
A24C A43G | 0.00364
A24C A43C | 0.0036
A24C A43T | 0.0035
T25C G33T | 0.0306
T25C G33C | 0.0119
T25C G33A | 0.0508

Variant | fraction ligated
A24G A27G | 0.0437
A24G A27T | 0.231
A24G A27C | 0.254
T25A A29C | 0.00458
T25A A29T | 0.015
T25A A29G | 0.00957
A24G A43G | 0.00288
A24G A43C | 0.0035
A24G A43T | 0.00328
A24T A44C | 0.00276
A24T A44T | 0.00772
A24T A44G | 0.0057
A24G G42A | 0.00347
A24G G42T | 0.000969
A24G G42C | 0.00119
C26A | 0.121
T25G G33T | 0.0188
T25G G33C | 0.00397
T25G G33A | 0.0162
C26A G37C | 0.00572
C26A G37T | 0.00569
C26A G37A | 0.00335
C26A G42A | 0.00533
C26A G42C | 0.00168

Variant | fraction ligated
C26A G42T | 0.00182
A24C T32A | 0.00211
A24C T32C | 0.00194
A24C T32G | 0.00553
A24G G37A | 0.00154
A24G G37C | 0.000862
A24G G37T | 0.00318
T25C T36C | 0.00974
T25C T36G | 0.0541
T25C T36A | 0.0394
T25A | 0.00703
T25G | 0.0165
T25C | 0.0278
C26A A44G | 0.03
C26A A44C | 0.0236
C26A A44T | 0.0723
T25G G34C | 0.00366
T25G G34T | 0.0038
T25G G34A | 0.00816
C26A A35G | 0.00416
C26A A35T | 0.00429
C26A A35C | 0.00203
T25C A30C | 0.081

— the supplement of paper PMC6755084
